Assay: soluble fraction after stress (log2 fold change); higher = more stays soluble; pooled small domains, quantitative proteomics
Conditions: stress: 50 degC
In short: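 Custom libraries of small protein domains were pooled and measured in a high-throughput format, with quantitative proteomics as the read-out. Each library was stressed at 50°C. The value is the log2 fold change in the amount of each protein that stays soluble after stress, used as a measure of aggregation propensity; higher values mean more of the protein stays soluble.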

| Sequence | soluble fraction (log2) |
| --- | --- |
| HMIPDAIDPDGRFKWRAGEAVVGFGRHAGEPLKKIAIENPEFLRWILKADFSTDVKKIASDALKGYFPEK | -0.23 |
| HMPMPQDEVSYALGLSIGQNFKASGIKAITSEDFIAGLQDALAEREPQMTTERAREVINQLFMRLQQEESE | 0.145 |
| HMGTESFGARIRKIREARDWTPAALAEATGQTPEFVARVERDEVAPPVAFLLRLAAALGVDPSTF | -0.123 |
| HMSAEDYLERIHELIESKGTAHVADIAQSLGVGKPSVTSMVQKLADEGYLNYEKYRSLTLTDSGRSIA | 0.105 |
| HMYSYSGSVINTYKVPVSVVLKDANGSAIASWDLPVDQSLGISAKDIATSSGTIEITGDGVNETKTVTFTK | -0.0188 |
| HMKLNEQSMQVIDRIVDRHRGRPGPVKLMLHDVQKELGYIPFEAMEKIAAASGVSADEVYGVVTFYTQFTT | -0.0825 |
| HMGISSESIKTFIREIVENEDPKAPLSDQTMVELLAERGIDISRRTVAKYRDEMNLPSSSKRKR | 0.462 |
| HMAEIIVHEINRHLGESDEPVEFPEERREEAVAELLKNFHNDDAFRKMDDGKYEVALDGEAVREAARSLLA | 0.207 |
| HMKDITAVISKKKGRDYYYIIVSYHLSNGKRVQKWIKTEFSVNGNNKRKLEQKRIEILQEWQNKLV | -0.642 |
| HMNKSYTVPDVRGMTVEEAQEAEGVKDIFTVHVQGTRKTDEYQPGQIVEQDPIAGRTRKSNFVIEVYVAE | 0.0819 |
| HMQALTLVGQDAKDAKAALDAVDIQPAKTETDRYIYVLTEQQAQELGRTVDALYGVEGSLTLILEV | 0.0301 |
| HMSNDRSYLARLQDYYAEHRALPSYASIGALLGLRSKSSVAALVARLKLAGFVESTPDRRLAPTRRFF | -3.24 |
| HMKNVADEVFEKMLNMIIEGDWKKGEMIPSENELREAFSVSRSTVRQAVQRLSALGIVRSRQGKGTYVEQV | -1.04 |
| HMADYYETLGVERTASEEDIKRAYRKMSRKYHPDIAGPEFEEKFKEVNTAYEVLSDPDKRRMYDAGVDPND | 0.0489 |
| HMTSPLQIHPNPATKHIELGLESPEVVLIKDINGKTVYQELVAPNQYIDIEHLKNGIYFIESKNKFGKLIK | 0.169 |
| HMANSREIPKLAGIEQEEAVKQLLDLDLKPVIEEITDDDTDAGDVVRTDPAAGEHVAVDTEITVFISIG | -0.421 |
| HMTKDVIEIVDGNKFVFHKTIATDSVSSVINKYHISEADFRTWNELTGDMKVGEEYIVQLSLH | -1.26 |
| HMTTTAGTAVVQTGNSGKLNLREQAYSNAGILGRYSNGTIVTVLQKGSAWSYVEVQGQKGYMMSKFLRFT | 0.293 |
| HMTTTYEINDEMLKPLILEIFNKSKQRFGSTKIAPVLKREGYTASIAKVKTLMNELGIKPVNA | -0.319 |
| HMRKDRKVLMERGRHIFNDLLEKEGIVATNQLMTKLLASHHLRNRDELYLMLANDDISLSSKEIKDLS | 0.0203 |
| HMRKDEFLQTLRRALNGNVPPRVVEENVRYYDGYISDEVRKGRSEEEVIEEIGDPRLIARTIEDTT | 0.0826 |
| HMLEQEQFESKLLKAINNINETQRIAFLMHRIDGKKYAEIASELNISVKAVEKRIHLALIELKKEIENF | -0.871 |
| HMARDSYNGVQRTISTLLGQGNYDRAYDVAVGARGQMSKQQWSDVAKRIYEVSGIKIDDSVKY | 0.159 |
| HMETVRLSVDAQGAYYWNEQRVDDSALPDLLREASGRKPQPDLHIRGDKAVRYERVAEAMAAAQRAGLKKI | 0.0588 |
| HMDFSENEPVTVRVLSILKNNTIRIAVKGAVLQAQTALSQDIREGAFLLMRVHITDNTVVLTPY | 0.0533 |

| Sequence | soluble fraction (log2) |
| --- | --- |
| HMALPPPELRGATGEAVTALRPAGIALIQGKRYDVLAEGGEWIAAGAAVRVRDIRNGHLIVSDA | 0.00767 |
| HMHSPTFYVHVVGQVKVPGVYELEVGSRLFDAVIAAGGFKDDADQASVNLARPLSDGEQIVVLKLGDQ | -0.251 |
| HMSEVIYVAEDNVGQRIDVFLVNKLVDASRANIQKNIVDGVILVNNKNVKANYKLRLGDVVEIRTQ | 0.156 |
| HMGFDTSMNKYTIDDLLKLLELGSNPSQAEIVNKITNFNTIFVDNSGVIQFLNNIQDKLLDNFK | -0.396 |
| HMSEDTYNTLTKGTRVYNGVDYGAKYGYNPLYYFLNYNDLRIAYGADPAKLVEHYALFGIKENRVANRQIT | -0.098 |
| HMKRLPAQMGGGDGVLRVPGLNNFVYVTIADKTLPAFNNRVPPKKGLRIWVGYSPEEPNLFQVLSTRTD | -0.576 |
| HMTKTEFLNLLEQRLFVLNDNERADLLSEYKQHIEMKIQSGLSEEEAIADFGDPEELIKELLEAY | -0.33 |
| HMNDRERIGKRIAQLRMEAGISQYKLAELTGLAPGNIARIETGKYSTGIDILSKIGDALGYQLDFI | -1.04 |
| HMRMSLDEAKAVVLPIGEYKGRNMGEVLAIKPELIDFYASQKFNSSKYPYLKEAAQVILENQ | -0.0538 |
| HMYYDDEELDDYRGKASDAYTAAEVEQFEEVLTTMRPEEVHGWLRSLQLRGVALPDALKDEAYMIVSEQAE | -0.252 |
| HMAQMDDPEMVLHIYNKMIQQRLFDTAVGYSYLKDLQEYLQSIPFIRKEDIFPIPVQHPQVEESLRKAK | -0.367 |
| HMNIQPAMLNAANGGVAWKERGISMSQIMKRNAHTAEGSQKLWDYAFENFFQKNIDAGNIRDDR | 0.0644 |
| HMYYIITNGKYWVIENPIRPGEYMESTKSSNAKQFTFKQAKNLLNARSKKLGWIRNGYSMVGED | -2.22 |
| HMQVSDEGPIKAILQEVLDKSPTQLADYASGKVKLRQYFFGEAMKALKGKANPQVINKLLDEMLPPVAA | 0.079 |
| HMEAISIYPNPTDNELHLSTSVQEVRIYNMYGIEVTRAANTDRLAVSHLPKGVYLVHADGAVLKMIK | -1.26 |
| HMHDIPDITDLRPLRHTLGLTLAHAAQQLNTTTATISRLERGQHRNDHLATTYRTWLHTHPT | -0.15 |
| HMESEAKLGVAFNGKTRFDMTFPADADNKTIEEAVLADERAQKYLEGFQVAKVIIVPKRMVNIVLK | 0.24 |
| HMKNIINFIVKEDDNNKRVDMILANHDKSLSRTRVKNLILDSKLKINERIVQDPSIKTKLNDKIELEIVEP | 0.611 |
| HMENVLFVNVLSMTVRELAEMMKIPVNKIIQDSFSKGIMMNPNQRLEYDNFAELAKKYGITVKI | -0.879 |
| HMELTDSLTENAKKLYSVLTTEPRHIDDLSEEAKLSSADTLAALTELELYSLVALSEGKHYYK | 0.00954 |
| HMQGNGKVATELLKDIIASDNLYINAMRMLVMHYNSKGTNQVEMVKLLHNILDLVPDDEYANEILKSAKKA | -0.327 |
| HMISDAEWTIMKALWQSEDKKMTLKEIAEAVADSGWSYTTVRTMVGRLVEKEAIEADESHPRNFRYSAA | -1.23 |
| HMSQDEVVADMKADLGPDADNIIRSNIQWADGLVRKGILTESEREELDVMGGTPEAQRILVKLRTMQG | 0.0777 |
| HMKYNETEFKNLVAKLYNGEIEIVGKFTGLSYPILVKDKYGIMLSQKANLILNYRPTINIALNKTEYAMN | -0.0487 |
| HMTYPGSIALVNPKHEAFVQHYVATSGSRGQAAKLAGVTTTTARNLLQDVEATARIRYLNAQQFQ | -0.107 |

| Sequence | soluble fraction (log2) |
| --- | --- |
| HMAKSKYETHVLPNLDKIIKWAKAGATAKEIAANLHIAYSTFRKYLDEGQEGDERYAALSAAFAQA | 0.321 |
| HMNLLSPREKQSLTLYASGLTLREVASELKLSPNSVGKFISRGKFKLNKSGAIVNSKTSIYLELKKRNLI | -0.111 |
| HMNDPNAPITENQLKAIHVLLDKLKVDDNLKHAYIADVLQLDNEPETLKTLTKAQGSMAIERMQLLKDN | 0.328 |
| HMDNAILQELYDYYKEDPSLSQSELIISMLTRIQEAVGYVSKDVQEEVARLAGVNRGYVAAIIKNLPHL | -0.747 |
| HMNLNESVELGQELLSQALAQLGIRGELSPSTIDKLLAESSAKSMEELYADIGIGKRMPALVARHIFGLMD | -0.43 |
| HMNELTDKQILLFSNKLAHNIPFSSKYSKPGESYEEFAERLANELIDPQKVKLYKPYLEEVGFK | 0.302 |
| HMPASTSIPYSDFISRVESGDVQEAKIGESAITGTYKDGSQFKTVKPPTLDTNLMPTLIQNKVNVVGVEP | 0.18 |
| HMGRFAETVEHIVAAQLARRQGIPTMEQFASFFNVSRATFQRRLGEEGETLEQIKQRVRLRLALELLHP | -2.86 |
| HMHKKQEVQDSIDAAEEFMRASGVPAELITSKRAYAVKAIYADAVDKGTPDEIVKKDGMIVALISQMRS | 0.267 |
| HMVNDQSIYASEGYVHIRSGKPVSLRIYTILGALYRHEERLVGDHVIALPRGLYIVVLNHTAKKIMV | -1.01 |
| HMTPTFSNQDLIKAGLAGSPVAKRRRERLGELLGIGYGNAKQLLKRLDLFAIDRPTFERAVAQLDQEGK | -0.161 |
| HMKITAPLPGTITEIKVKVGDTVKNGDTVVVLEAMKMQNNIEAESNGTVTAIFVNKGDTVMEGDALMTI | 0.14 |
| HMVVKSPLEMAFDKFREMRKKIRKPMTERAEELIWKELSKLAGEDSDLKIEILEQSIRNGWQDVYAVK | -0.265 |
| HMTEVPSLSSLKIGDLIFYRNNKGAIAHSAIITSFYNGRPFISQHTFNALNITYVKDWASKMHFIKIW | -0.0353 |
| HMEVIDQLFKIALTLFDIDKGENNSISQDLVDKVIEQMKTTAPTFIKRELSEDEVKKLRFEIQNHFNV | -0.221 |
| HMERPPHELLSDREYQTMVMIASGRTLTQIAEEMSLSPKTVSVYRARLLEKMKLKNNAELTHYALKHKLV | 0.0152 |
| HMIDHLPPQRAAVLAFLQRELVAGRSPSLAEIALAFGFASRNAAQKHVQALVADGLLEQATGRSRGLRLPG | -1.67 |
| HMSTFKSYRGKITASSGVNIRTGAGTNYNKNGALTYNSVVTIVDEKKVSGTTWGKLADGRGWISLDYLKK | -0.554 |
| HMGKQPLYEQLVDLLRDRIENDMETGELLPSERKLAHHFGLSRTTVRLAMDRLETLGLITRVHGKDTFVAE | -1.17 |
| HMFPELDEEEQKITKLLQAQNDLPANIIAVKTALNIGTTQAKLFSLEMKGVVKPYAGGFYHLL | -0.25 |
| HMQDPVWVDWLGENDWFQKDPKRRGLANGYSEILRAEQPELVGRPFLDEVTRRVQADFPELFG | -0.335 |
| HMKRTRLEEAMDWLREQLNDGPVAYATLKDEAPKAEITLSTLRAAGEALRVDKQKKGVQWGGWTWSLPR | 0.0438 |
| HMKNYYELLGVAREASQDQIKKAYRKLARKYHPDVSKEADAETRMQELNVAYDTLSDAEKKREYDFQLDHP | 0.00768 |
| HMFRPRIEPGAKGSYVLEVQKRLAKLGYEHAGFDGVYGPGTERAIMQLQRDKGLPVTGIVDMRTYEALGLF | -0.46 |
| HMGTVSSGSSSTDTPFSLGEIVRHKVFGEGVVLSIEGQGDASRIQINFNTAGTKWLVTAYADLEK | -0.219 |

— the domain aggregation screens of Martell et al. (2025)
